Laboratory results reported in patent US7005419 (US Dept. of Health and Human Services, dated 2006).
Values belong to the binder of their own block, whether it stands above or below them.

How the values were obtained:
[1] = target: Cdk2 (human, UniProt P24941 1-298); experiment: GST pull-down from RKO cell lysate, anti-Cdk2 immunoblot
[2] = target: T1, Cyclin B1 (human, UniProt P14635 1-433); experiment: GST pull-down from RKO cell lysate, anti-cyclin B1 immunoblot
T1 construct: Endogenous cellular protein

[3] = target: T2, p21^Cip1/Wafl (human, UniProt P38936 1-164, limits assumed); experiment: co-immunoprecipitation with anti-p21 from transfected HCT116 cells, anti-HA Western blot
T2 construct: Both are written as one molecule; also called p21^wafl
Protocol: (§1) The immunoprecipitates were then analyzed by Western blot with anti-HA antibody.

[4] = target: T3, PCNA (human, UniProt P12004 1-261); experiment: co-immunoprecipitation with anti-PCNA from transfected HCT116 cells, anti-HA Western blot
T3 construct: Endogenous cellular protein
Protocol: as §1

[5] = target: T4, Cdc2 (human, UniProt P06493 1-297); experiment: co-immunoprecipitation with anti-Cdc2 from transfected HCT116 cells, anti-HA Western blot
T4 construct: Endogenous cellular protein; also called cellular Cdc2; Cdc2 polypeptide
Protocol: as §1

T4 sequence (P06493 whole entry): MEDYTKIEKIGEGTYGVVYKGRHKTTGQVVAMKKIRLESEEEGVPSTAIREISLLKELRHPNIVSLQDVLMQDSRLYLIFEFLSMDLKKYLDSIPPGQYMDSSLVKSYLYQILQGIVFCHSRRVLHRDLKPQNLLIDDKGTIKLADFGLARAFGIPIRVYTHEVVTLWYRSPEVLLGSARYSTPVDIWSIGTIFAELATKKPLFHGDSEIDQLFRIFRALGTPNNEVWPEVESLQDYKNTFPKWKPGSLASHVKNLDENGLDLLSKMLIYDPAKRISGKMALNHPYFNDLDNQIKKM
T1 sequence (P14635 whole entry): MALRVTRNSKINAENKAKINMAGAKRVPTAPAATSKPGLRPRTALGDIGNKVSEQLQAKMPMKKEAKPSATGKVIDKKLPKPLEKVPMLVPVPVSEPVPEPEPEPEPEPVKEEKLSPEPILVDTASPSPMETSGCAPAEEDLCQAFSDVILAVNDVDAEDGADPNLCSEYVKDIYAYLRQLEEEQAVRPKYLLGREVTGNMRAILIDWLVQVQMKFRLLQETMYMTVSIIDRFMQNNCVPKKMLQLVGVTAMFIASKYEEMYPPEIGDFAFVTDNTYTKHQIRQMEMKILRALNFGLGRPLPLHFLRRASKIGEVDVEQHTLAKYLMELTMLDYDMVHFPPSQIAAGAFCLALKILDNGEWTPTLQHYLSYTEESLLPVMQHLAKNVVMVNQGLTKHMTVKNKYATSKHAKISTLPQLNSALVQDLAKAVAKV
T2 sequence (P38936 whole entry): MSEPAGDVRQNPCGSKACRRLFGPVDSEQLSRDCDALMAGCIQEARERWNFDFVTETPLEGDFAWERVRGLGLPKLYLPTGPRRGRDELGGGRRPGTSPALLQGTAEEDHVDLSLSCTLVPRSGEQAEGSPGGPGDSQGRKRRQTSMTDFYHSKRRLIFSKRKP
T3 sequence (P12004 whole entry): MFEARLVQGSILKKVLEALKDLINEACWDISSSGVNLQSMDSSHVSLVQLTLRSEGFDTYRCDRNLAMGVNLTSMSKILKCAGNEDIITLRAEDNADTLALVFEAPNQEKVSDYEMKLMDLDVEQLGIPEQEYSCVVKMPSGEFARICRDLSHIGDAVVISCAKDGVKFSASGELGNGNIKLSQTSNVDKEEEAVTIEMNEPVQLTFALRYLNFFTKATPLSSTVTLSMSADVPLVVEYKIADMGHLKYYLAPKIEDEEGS

- binding result [1]: no binding (tested: 100 ng)
- binding result [2]: no binding (tested: 100 ng)
B1: glutathione-S-transferase (GST)/GADD45 fusion protein (other)
chain: TLEEFSAGEQKTERMDKVGDALEEVLSKALSQRTITVGVYEAAKLLNVDPDNVVLCLLAADEDDDRDVALQIHFTLIQAFCCENDINILRVSNPGRLAELLLLETDAGPAASEGAEQPPDLHCVLVTNPHSSQWKDPALSQLICFCRESRYMDQWVPVINLPER
notes: GADD45 insert was amplified from pHul45B2 and cloned XhoI/NotI into pGEX4T; also called GST-tagged GADD45; not shown: Glutathione-S-transferase encoded by the pGEX4T vector (Pharmacia)

- binding result [3]: no binding
- binding result [4]: no binding
- binding result [5]: no binding
B2: GADD45 deletion mutant del50-76 (HA-tagged) (other, not shown: small tags and cut ends)
chain: MTLEEFSAGEQKTERMDKVGDALEEVLSKALSQRTITVGVYEAAKLLNVLIQAFCCENDINILRVSNPGRLAELLLLETDAGPAASEGAEQPPDLHCVLVTNPHSSQWKDPALSQLICFCRESRYMDQWVPVINLPER
notes: The junction is not described
